Test results: US20250381223A1 (UTC THERAPEUTICS SHANGHAI, published 2025)
Numbering of substitutions follows the chain as printed.

B1: anti-mesothelin scFv-M8 (scFv)
scFv: DIQLTQSPSSLSASVGDRVTITCRASQSISSSLNWYQQKPGKAPKLLIYAASSLQSGVPSRFSGSGSGTDFTLTISSLQPEDFATYSCQQSYSTPLTFGGGTKVEIKGGGGSGGGGSGGGGSQVHLVESGGGVVQPGRSLRVSCAASGFTFSGYAMYWVRQAPGKGLEYVSAITTNGGSTNYADSVKGRFTISRDNSKNTLYLQMSSLRAGDTAVYYCARGAPGYRGYYMDVWGKGTTVTVSS
notes: On mRNA-electroporated T cells as CAR
B2: anti-mesothelin scFv-M6 (scFv)
scFv: EIVMTQSPATLSLSPGERATLSCRASQSIGNSLAWYQQKPGQAPRLLIYDVSNRATGIPARFSGSGSGTDFTLTISSLEPEDFAVYYCQHRYSWPLTFGGGTKVEIKGGGGSGGGGSGGGGSQVQLVQSGGGLVKPGGSLRLSCAASGFTFSDYYMSWIRQAPGKGLEWVSYISSSGSTIYYADSVKGRFTISRDNAKNSLYLQMNSLRAEDTAVYYCARDGYRTHNWFDPWGQGTLVTVSS
notes: as for B1
B3: anti-mesothelin scFv-M13 (scFv)
scFv: AIRMTQSPSSLSASVGDRVTITCRASQGISNSLAWYQQKPGKAPKLLLYAASRLESGVPSRFSGSGSGTDYTLTISSLQPEDFATYYCQQYYSTPFTFGPGTKLEIKGGGGSGGGGSGGGGSQVQLVQSGAEVKKPGSSVKVSCKTSADTFSANTINWVRQAPGHGLEWMGRIIPSLNIRDYAQEFQGRVTFTADESTNTVYMQLTSLRSEDTAVYYCARDPGSTWSPNQFFPHWGQGTLVTVSS
notes: as for B1
B4: anti-mesothelin scFv-M7 (scFv)
scFv: DIRLTQSPSSLSASLGDRVTITCRASQAISSALAWYQQKPGKAPRLLIYDASTLESGVPSRFSGSGSGTDFTLTISSLQPEDFATYYCQQADSFPLTFGGGTKLEIKGGGGSGGGGSGGGGSQVQLVQSGAEVKKSGESLKISCKGSGYGFGAYWIAWVRQMPGKGLEWMGIIYPGDSRVIYSPYFQGQVTISADKSISTAYLQWSSLKASDTAMYYCARFGGPKFATNWFDIWGQGTTVTVSS
notes: as for B1
B5: M18 (scFv)
chain 1: QVQLVQSGGGLVQPGGSLRLSCAASGFTFSSYWMHWVRQAPGKGLVWVSRINSDGSSTSYADSVKGRFTISRDNAKNTLYLQMNSLRAEDTAVYYCVRTGWVGSYYYYMDVWGKGTTVTVSS
chain 2: EIVLTQSPGTLSLSPGERATLSCRASQSVSSNYLAWYQQKPGQPPRLLIYDVSTRATGIPARFSGGGSGTDFTLTISSLEPEDFAVYYCQQRSNWPPWTFGQGTKVEIK
B6: anti-mesothelin scFv-M15 (scFv)
scFv: DIQLTQSPSSLSASIGDRVTITCRASQGVNSALAWYQQKPGKPPNLLIYDASSLESGVPSRFSGSGSGRDFTLTISSLQPEDFATYYCQQFSSYPLTFGGGTKVDIKGGGGSGGGGSGGGGSQVQLVQSGAEVKKPGASVKVSCKASGYTFTSYYMHWVRQAPGQGLEWMGIINPSGGSTSYAQKFQGRVTMTRDTSTSTVYMELSSLRSEDTAVYYCARAQRGGSVYFDYWGQGTLVTVSS
notes: as for B1
B7: anti-mesothelin scFv-M32 (scFv)
scFv: DIRMTQSPSSLSASVGDRVTVTCQASEDINNSLNWYQQKPGKAPQLLIYDASDLETGVPSRFSGRGSGRDFTLTISSLQPEDFATYYCQQLNSYPLTFGGGTKLEIKGGGGSGGGGSGGGGSQVQLVQSGAEVKKPGASVKVSCKASGFTFIGYYLHWVRQAPGQGLEWMGIINPSGGRTSMAQKFQGRVSMTTDTSTGTVYLDLGRLGSDDTAVYYCARADNWNAGSMDVWGNGTTVTVSS
notes: as for B1
B8: anti-mesothelin scFv-M31 (scFv)
scFv: QSALTQPPSASGSPGQSVTISCTGTSSDIGGYNSVSWYQQHPGKAPKLIIYGVSRRPSGVPDRFSGSKSANTASLTVSGLQAVDEADYYCSSYGGSNNLLFGGGTKLTVLGGGGSGGGGSGGGGSEVHLVESGGGLAQPGGSLRLSCAASGFSFSSSWMAWVRQAPGKGLEWVANIKQDGSSQYYVDSVKGRFTISRDNAKNSLSLQMNSLRAEDTAVYYCARDIWYSIDYWGQGTLVTVSS
notes: as for B1
B9: anti-mesothelin scFv-M37 (scFv)
scFv: DIVMTQTPSSLSASVGDRVTITCRASQGISNYLAWFQQKPGKAPKPLIYAASSLQSGVPSKFSGSGSGTDFTLTISNLQPEDFATYICQQYSSYPITFGQGTRLEIKGGGGSGGGGSGGGGSQLQLQESGPGLVKPSETLSLTCAVSGGSISPYYWTWIRQSPGKAMEWMGYIHYSGRTNYNPSLESRATFSVDTSKNQISLKLNSVTAADTAVYYCTKVGDPGLFDYWGPGTLVTVSS
notes: as for B1
B10: 4.6 (bispecific antibody)
single chain, scFv-G4S-scFv: QVQLVQSGAEVKKPGSSVKVSCKASGGTFSSYAISWVRQAPGQGLEWMGMINPSGGTTSYAQKFQGRVTMTRDTSTSTVYMELSSLRPEDTAVYYCARGFRMDQWGQGTLVTVSSGGGGSGGGGSGGGGSQSALTQPPSASGSPGQSVTISCTGTSSDVGAYNFVSWYQQHPGNAPKLIIYDVRKRPSGIPDRFSASKSGNTASLTVSGLQADDEADYYCSSYAGNNNLVFGGGTKLTVLGGGGSQVKLQESGPGLVKPSETLSITCTVSGFSLSDYGVHWVRQSPGKGLEWLGVIWAGGGTNYNSALMSRKTISKDNSKSQVFLKMSSLTAADTAVYYCARDKGYSYYYSMDYWGQGTTVTVSSGGGGSGGGGSGGGGSDIQLTQSPSSLSVSVGDRVTISCRASESVEYYVTSLMQWYQQKPGQAPKLLIFAASNVESGVPSRFSGSGSGTNFTLTISSVQEEDFAMYFCQQSRKVPYTFGGGTKLEIK
notes: Expressed from mRNA in T cells; A signal peptide is not described; also called parent diabody 4.6
B11: 5.17 (bispecific antibody)
single chain, scFv-G4S-scFv: B10 single chain, scFv-G4S-scFv with N228E, L229M
notes: how the two are joined there is not described; also called diabody part of M12-5.17 and 5.17-M12
B12: 5.12 (bispecific antibody)
single chain, scFv-G4S-scFv: B10 single chain, scFv-G4S-scFv with I34V, S188R
B13: 5.25 (bispecific antibody)
single chain, scFv-G4S-scFv: B10 single chain, scFv-G4S-scFv with N228R
B14: 5.28 (bispecific antibody)
single chain, scFv-G4S-scFv: B10 single chain, scFv-G4S-scFv with V183T
B15: 5.36 (bispecific antibody)
single chain, scFv-G4S-scFv: B10 single chain, scFv-G4S-scFv with E10Q, S188I

These binders were tested against T1, mesothelin-Fc recombinant protein (human, UniProt Q13421 296-580, limits assumed) (assay: flow cytometry, T cells with CAR mRNA, mesothelin-Fc + PE-anti-IgG-Fc; Control 0.63).
T1 construct: construct not described; also called Meso-Fc; not shown: Fc part
T1 sequence (Q13421 other isoform, or with tags, fused parts or gaps limits assumed): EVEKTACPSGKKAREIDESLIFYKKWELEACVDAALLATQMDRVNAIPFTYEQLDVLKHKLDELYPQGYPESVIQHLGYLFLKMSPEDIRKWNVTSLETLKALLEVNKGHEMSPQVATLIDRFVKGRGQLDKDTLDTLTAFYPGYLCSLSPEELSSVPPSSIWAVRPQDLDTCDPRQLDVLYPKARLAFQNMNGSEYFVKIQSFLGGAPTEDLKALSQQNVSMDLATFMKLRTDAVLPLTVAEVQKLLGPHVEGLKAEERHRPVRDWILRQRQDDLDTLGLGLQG
Procedure: (§1) Mesothelin CAR mRNA obtained in Example 26 above was introduced into A549 tumor cells and T cells by electroporation, and the procedures are as follows: A549 tumor cells and T cells were collected and washed 3 times with the Opti-MEM medium. The cell pellet was resuspended in the Opti-MEM medium and the cell concentration was adjusted to 1×10e7 cells/mL. 10 μg of RNA was aliquoted into 1.5-mL EP tubes, 100 μL of T cells or A549 cells were added, followed by mixing well. 100 μL of cells mixed with RNA were added to the BTX electroporation cuvette and slight tapping was performed to avoid air bubbles. Electroporation was performed using a BTX instrument under the following parameters: for T cells: 500 V voltage, 0.7 ms; for A549 tumor cells: 300 V voltage, 0.5 ms. The cells were then transferred to a pre-warmed medium and cultured at 37° C. The binding of mesothelin CART cells to the mesothelin-Fc recombinant protein was determined by FACS staining. […] T cells without CAR molecules served as the control (“Mock”).

percent of cells in the gate [%] | Binder
80.8 | B1
83.4 | B2
71.1 | B3
36.3 | B4
9.53 | B5
48.8 | B6

What follows are binders tested against T1, mesothelin-Fc recombinant protein (assay: flow cytometry, T cells with CAR mRNA, mesothelin-Fc + PE-anti-IgG-Fc; Control 0.97).
Procedure: as §1

percent of cells in the gate [%] | Binder
84.1 | B7
67.9 | B8
74.2 | B9

These binders were tested against T2, Meso-biotin (assay: flow cytometry, T cells with diabody mRNA only, Meso-biotin + PE-Streptavidin; E1 0.29).
T2 construct: Meso-Fc and PE-anti-Fc for this staining

percent of cells in the gate [%] | Binder
0.72 | B10
1.12 | B11
1.11 | B12
2.36 | B13
0.94 | B14
1.14 | B15

These binders were tested against T3, CD40-Fc ( for this staining reagent …, UniProt P25942) (assay: flow cytometry, T cells with 10 µg diabody mRNA only, CD40-Fc + PE-anti-Fc; E1 (no mRNA) 0.48).
T3 construct: soluble Fc fusion; Staining reagent, detected with PE-anti-Fc

percent of cells in the gate [%] | Binder
81.6 | B10
82.1 | B11
93.6 | B12
92.7 | B13
85.8 | B14
88 | B15

What follows are binders tested against T3, CD40-Fc (assay: flow cytometry, T cells with diabody mRNA and M12 CAR mRNA, CD40-Fc + PE-anti-Fc; E1 0.48, E2 (M12 only) 0.77).

percent of cells in the gate [%] | Binder
83.9 | B10
88.1 | B11
87.9 | B12
92.9 | B13
87.4 | B14
94.2 | B15
